Results taken from publication PMC5855701.

Columns and labels:
[1] = target: GST-CA-Rac1 (constitutively-active Rac1 fused to GST) (UniProt P63000); test: pull-down; GST fusion (GST-RacWT, GST-CA-Rac1 or GST-alone) on glutathione-agarose beads; 550-1000 ug total lysate of HP cells, unstimulated or treated with TGFβ1 (10 ng/mL) up to 60 min; 2 h at 4 °C; three washes; immunoblot for Trio or CdGAP (LiCor)
[2] = target: GST-Rac1 (wild type Rac1 fused to GST) (UniProt P63000); test: as above

Chain of CdGAP (Q2M1Z3 whole entry): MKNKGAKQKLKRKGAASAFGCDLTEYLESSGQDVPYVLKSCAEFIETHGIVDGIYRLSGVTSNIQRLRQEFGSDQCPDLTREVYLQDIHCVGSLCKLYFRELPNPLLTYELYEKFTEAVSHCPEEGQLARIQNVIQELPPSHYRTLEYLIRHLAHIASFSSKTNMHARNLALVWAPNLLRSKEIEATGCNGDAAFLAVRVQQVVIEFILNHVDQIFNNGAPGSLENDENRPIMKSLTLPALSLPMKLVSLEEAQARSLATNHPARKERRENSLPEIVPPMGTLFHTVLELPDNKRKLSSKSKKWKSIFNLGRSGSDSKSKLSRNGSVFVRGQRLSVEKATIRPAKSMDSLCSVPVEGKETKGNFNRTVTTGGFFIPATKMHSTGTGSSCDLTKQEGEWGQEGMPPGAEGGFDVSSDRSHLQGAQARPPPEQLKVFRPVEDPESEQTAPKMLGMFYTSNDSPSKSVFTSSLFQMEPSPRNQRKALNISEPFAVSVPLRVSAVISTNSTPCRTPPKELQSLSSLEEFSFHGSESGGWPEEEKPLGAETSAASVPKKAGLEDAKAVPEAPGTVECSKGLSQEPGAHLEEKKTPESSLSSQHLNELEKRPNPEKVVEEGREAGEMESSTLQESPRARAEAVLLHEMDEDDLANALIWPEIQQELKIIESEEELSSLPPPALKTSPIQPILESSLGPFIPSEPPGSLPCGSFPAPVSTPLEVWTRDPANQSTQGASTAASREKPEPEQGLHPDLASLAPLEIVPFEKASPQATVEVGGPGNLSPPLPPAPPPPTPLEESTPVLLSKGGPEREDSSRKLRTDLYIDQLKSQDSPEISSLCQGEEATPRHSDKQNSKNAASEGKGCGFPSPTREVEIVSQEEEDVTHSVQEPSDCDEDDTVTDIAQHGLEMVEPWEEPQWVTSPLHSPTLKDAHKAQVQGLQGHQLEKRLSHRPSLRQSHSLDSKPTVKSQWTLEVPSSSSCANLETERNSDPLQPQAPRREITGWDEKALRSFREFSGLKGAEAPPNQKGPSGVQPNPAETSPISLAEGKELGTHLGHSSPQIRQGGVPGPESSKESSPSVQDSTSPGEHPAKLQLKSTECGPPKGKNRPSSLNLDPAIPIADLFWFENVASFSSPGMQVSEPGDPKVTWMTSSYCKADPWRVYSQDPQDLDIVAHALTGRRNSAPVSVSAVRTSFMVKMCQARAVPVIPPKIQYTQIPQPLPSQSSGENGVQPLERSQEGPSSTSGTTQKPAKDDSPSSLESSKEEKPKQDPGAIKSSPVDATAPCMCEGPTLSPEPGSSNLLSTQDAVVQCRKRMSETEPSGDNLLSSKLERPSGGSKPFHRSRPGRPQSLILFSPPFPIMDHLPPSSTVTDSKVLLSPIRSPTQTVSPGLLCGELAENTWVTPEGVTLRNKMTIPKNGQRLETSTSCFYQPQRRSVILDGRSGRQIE

| Substance | fold change of CdGAP pulled down by GST-CA-Rac1, 30 min TGFβ1 against 0 min [1] | fold change of CdGAP pulled down by GST-CA-Rac1, 45 min TGFβ1 against 0 min [1] | fold change of CdGAP pulled down by GST-CA-Rac1, 60 min TGFβ1 against 0 min [1] | fold change of Trio bound to GST-Rac1, 45 min TGFβ1 against unstimulated [2] |
| --- | --- | --- | --- | --- |
| CdGAP (from UniProt Q2M1Z3 1-1444) (natural protein) | 1.55 fold | 1.56 fold | 1.53 fold | – |
| Trio, O75962 1-3097 (natural protein; other documents disagree on this pair) | – | – | – | 1.82 fold |
